Source: publication PMC3415446

Key:
[1] = target: NDV Ulster HN ectodomain (residues 49-616) (Newcastle disease virus (NDV), strain Ulster); test: not stated; ectodomain in solution; method not given
[2] = target: NDV Ulster HN ectodomain (residues 49-616) (Newcastle disease virus (NDV), strain Ulster); test: SDS-PAGE under non-reducing conditions
[3] = target: NDV Ulster HN NA domain (residues 124-616), containing the C-terminal extension (Newcastle disease virus (NDV), strain Ulster); test: negative-stain electron microscopy
[4] = target: NDV Ulster HN NA domain (residues 124-616), containing the C-terminal extension (Newcastle disease virus (NDV), strain Ulster); test: sucrose density gradient sedimentation
[5] = target: NDV Ulster HN NA domain (residues 124-616), containing the C-terminal extension (Newcastle disease virus (NDV), strain Ulster); test: SEC
[6] = target: NDV Ulster HN NA domain (residues 124-616), containing the C-terminal extension (Newcastle disease virus (NDV), strain Ulster); test: SDS-PAGE under non-reducing conditions

Measured: stoichiometry N

NDV Ulster HN ectodomain (residues 49-616) (domain or fragment)
2: [1] | [2]

NDV Ulster HN NA domain (residues 124-616), containing the C-terminal extension (domain or fragment)
2: [3] | [4] | [5] | [6]
